Test results taken from article PMC11761524 (bioRxiv, 2025).

Legend:
GST-Cyclin A (173–432) = GST-Cyclin A (173–432) (UniProt P20248); assay: fluorescence polarisation
[1] = target: strep-Cyclin F (1–546)-GST-Skp1 (1–163) (human) (UniProt P41002); assay: fluorescence polarisation
CP110 = assay: Coimmunoprecipitation of Flag-Cyclin F with endogenous CP110 in HEK293T cells; assay type: cell-based; conditions: anti-Flag IP, Western blot, vs WT Cyclin F
CDC6 = assay: Coimmunoprecipitation of Flag-Cyclin F with endogenous CDC6 in HEK293T cells; assay type: cell-based; conditions: anti-Flag IP, Western blot, vs WT Cyclin F

UniProt P20248, sequence (P20248 173-432): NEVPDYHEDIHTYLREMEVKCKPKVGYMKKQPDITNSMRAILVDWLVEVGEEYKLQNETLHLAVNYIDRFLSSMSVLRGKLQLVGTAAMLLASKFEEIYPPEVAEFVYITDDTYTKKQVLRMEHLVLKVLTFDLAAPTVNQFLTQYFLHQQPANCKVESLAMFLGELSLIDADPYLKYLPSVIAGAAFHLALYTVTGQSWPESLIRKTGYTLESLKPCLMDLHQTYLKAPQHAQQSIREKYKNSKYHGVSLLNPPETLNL

Molecule	fold decrease in affinity against the wild-type E2F1 peptide (GST-Cyclin A (173–432))	fold decrease in affinity against the wild-type E2F1 peptide [1]	association with CP110 (coimmunoprecipitation) (CP110)	association with CDC6 (coimmunoprecipitation) (CDC6)
E2F1 peptide V88E (unlabeled) (from UniProt Q01094 84-99)	460 fold	31 fold		
E2F1 peptide R91E (unlabeled) (from UniProt Q01094 84-99)	12 fold	41 fold		
E2F1 peptide K89E (unlabeled) (from UniProt Q01094 84-99)	48 fold	24 fold		
E2F1 peptide D93R (unlabeled) (from UniProt Q01094 84-99)	3 fold	3 fold		
Cyclin F loop mutant: Flag-Cyclin F mutant containing D504-T511 all changed to alanine (protein, left off: Flag, end not stated, kept) MGSGGVVHCRCAKCFCYPTKRRIRRRPRNLTILSLPEDVLFHILKWLSVEDILAVRAVHSQLKDLVDNHASVWACASFQELWPSPGNLKLFERAAEKGNFEAAVKLGIAYLYNEGLSVSDEARAEVNGLKASRFFSLAERLNVGAAPFIWLFIRPPWSVSGSCCKAVVHESLRAECQLQRTHKASILHCLGRVLSLFEDEEKQQQAHDLFEEAAHQGCLTSSYLLWESDRRTDVSDPGRCLHSFRKLRDYAAKGCWEAQLSLAKACANANQLGLEVRASSEIVCQLFQASQAVSKQQVFSVQKGLNDTMRYILIDWLVEVATMKDFTSLCLHLTVECVDRYLRRRLVPRYRLQLLGIACMVICTRFISKEILTIREAVWLTDNTYKYEDLVRMMGEIVSALEGKIRVPTVVDYKEVLLTLVPVELRTQHLCSFLCELSLLHTSLSAYAPARLAAAALLLARLTHGQTQPWTTQLWDLTGFSYEDLIPCVLSLHKKCFHDDAPKAAAAAAAAAVKQRFEDKRYGEISQEEVLSYSQLCAALGVTQDSPDPPTFLSTGEIHAFLSSPSGRRTKRKRENSLQEDRGSFVTTPTAELSSQEETLLGSFLDWSLDCCSGYEGDQESEGEKEGDVTAPSGILDVTVVYLNPEQHCCQESSDEEACPEDKGPQDPQALALDTQIPATPGPKPLVRTSREPGKDVTTSGYSSVSTASPTSSVDGGLGALPQPTSVLSLDSDSHTQPCHHQARKSCLQCRPPSPPESSVPQQQVKRINLCIHSEEEDMNLGLVRL			weaker association was more apparent	weaker association was more apparent
